The values that follow come from publication PMC2139591.

The assay deals with NGF-specific-receptor-like molecule (NSR) from C 1300 neuroblastoma cells (mouse (endogenous in C 1300 NB cells)). Nature of the assay: radioligand binding.

As for “nerve growth factor (NGF), mouse salivary glands (from UniProt P01139 122-241) (ligand)”, the Ka turned out to be 1e+07 M⁻¹.
